{
  "source": "patent US20240034757A1",
  "about": "(OXFORD UNIVERSITY INNOVATION, published 2024)",
  "binders": {"B1": {"name": "CXCL13_HUMAN (ligand)", "chain": "VLEVYYTSLRCRCVQESSVFIPRRFIDRIQILPRGNGCPRKEIIVWKKNKSIVCVDPQAEWIQRMMEVLRKRSSSTLPVPVFKRKIP"}},
  "key": {"P1080_IXORI": {"biological_target": "P1080_IXORI (Ixodes ricinus, UniProt A0A090XBL6 20-118)", "sequence (A0A090XBL6 20-118)": "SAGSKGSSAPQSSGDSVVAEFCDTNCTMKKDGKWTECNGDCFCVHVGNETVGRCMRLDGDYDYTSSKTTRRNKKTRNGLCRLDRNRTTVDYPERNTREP", "assay": "BLI"}, "P1095_IXORI": {"biological_target": "T1, P1095_IXORI (Ixodes ricinus, UniProt A0A0K8RCE3 24-112)", "T1 sequence": "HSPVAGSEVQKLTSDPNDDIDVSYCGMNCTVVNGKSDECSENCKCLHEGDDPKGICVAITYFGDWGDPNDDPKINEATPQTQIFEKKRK", "assay": "BLI"}, "P1096_IXORI": {"biological_target": "T2, P1096_IXORI (Ixodes ricinus, UniProt A0A0K8RKE4 24-114)", "T2 sequence": "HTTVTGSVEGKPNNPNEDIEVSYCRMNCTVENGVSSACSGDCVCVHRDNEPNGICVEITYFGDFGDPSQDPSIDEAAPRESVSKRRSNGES", "assay": "BLI"}, "P1134_IXORI": {"biological_target": "T3, P1134_IXORI (Ixodes ricinus, UniProt A0A0K8RAI0 32-135)", "T3 sequence": "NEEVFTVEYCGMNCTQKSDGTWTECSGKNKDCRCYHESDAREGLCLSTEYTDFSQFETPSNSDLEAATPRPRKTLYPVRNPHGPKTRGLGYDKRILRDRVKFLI", "assay": "BLI"}, "CXCL6_HUMAN [1]": {"biological_target": "T4, CXCL6_HUMAN (human, UniProt P80162 38-114)", "T4 sequence": "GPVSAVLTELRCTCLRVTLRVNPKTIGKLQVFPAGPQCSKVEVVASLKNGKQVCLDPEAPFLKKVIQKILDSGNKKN", "assay": "BLI [Cont.]"}, "CXCL2_HUMAN [2]": {"biological_target": "T5, CXCL2_HUMAN (human, UniProt P19875 35-107)", "T5 sequence": "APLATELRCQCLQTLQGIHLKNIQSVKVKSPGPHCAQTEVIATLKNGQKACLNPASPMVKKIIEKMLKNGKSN", "assay": "BLI [Cont.]"}, "CXCL4_HUMAN": {"biological_target": "T6, CXCL4_HUMAN (human, UniProt P02776 32-101)", "T6 sequence": "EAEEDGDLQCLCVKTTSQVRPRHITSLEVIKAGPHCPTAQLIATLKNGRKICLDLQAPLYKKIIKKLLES", "assay": "BLI [Cont.]"}, "CXCL7_HUMAN": {"biological_target": "T7, CXCL7_HUMAN (human, UniProt P02775 59-128)", "T7 sequence": "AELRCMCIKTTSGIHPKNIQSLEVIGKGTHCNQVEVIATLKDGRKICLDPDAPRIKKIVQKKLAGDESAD", "assay": "BLI [Cont.]"}, "CXCL5_HUMAN [3]": {"biological_target": "T8, CXCL5_HUMAN (human, UniProt P42830 41-114)", "T8 sequence": "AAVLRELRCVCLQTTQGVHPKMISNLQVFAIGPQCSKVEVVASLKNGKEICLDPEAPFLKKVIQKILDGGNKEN", "assay": "BLI [Cont.]"}, "CXCL11_HUMAN": {"biological_target": "T9, CXCL11_HUMAN (human, UniProt O14625 22-94)", "T9 sequence": "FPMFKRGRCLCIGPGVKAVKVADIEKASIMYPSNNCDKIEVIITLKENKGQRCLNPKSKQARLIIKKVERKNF", "assay": "BLI"}, "CXCL9_HUMAN": {"biological_target": "T10, CXCL9_HUMAN (human, UniProt Q07325 23-125)", "T10 sequence": "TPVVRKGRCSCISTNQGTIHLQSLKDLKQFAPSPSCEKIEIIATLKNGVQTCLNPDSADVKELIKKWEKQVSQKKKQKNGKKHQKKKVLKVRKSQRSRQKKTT", "assay": "BLI"}, "CXCL10_HUMAN [4]": {"biological_target": "T11, CXCL10_HUMAN (human, UniProt P02778 22-98)", "T11 sequence": "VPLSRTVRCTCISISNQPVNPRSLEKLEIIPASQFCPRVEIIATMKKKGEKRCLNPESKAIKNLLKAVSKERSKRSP", "assay": "BLI"}, "CXCL14_HUMAN": {"biological_target": "T12, CXCL14_HUMAN (human, UniProt O95715 35-111)", "T12 sequence": "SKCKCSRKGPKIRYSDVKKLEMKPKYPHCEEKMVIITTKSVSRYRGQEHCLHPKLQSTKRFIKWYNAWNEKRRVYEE", "assay": "BLI"}, "CXCL12_HUMAN": {"biological_target": "CXCL12_HUMAN (human, UniProt P48061 22-89)", "sequence (P48061 22-89 limits assumed)": "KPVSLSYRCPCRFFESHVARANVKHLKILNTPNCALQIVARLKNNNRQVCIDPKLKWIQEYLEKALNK", "assay": "BLI"}, "CXCL13_HUMAN": {"biological_target": "B1", "assay": "BLI"}, "CXCL10_HUMAN [5]": {"biological_target": "T11, CXCL10_HUMAN", "assay": "yeast surface display FACS re-test; note: test concentration or dose not given here"}, "CXCL8_HUMAN [6]": {"biological_target": "T13, CXCL8_HUMAN (human, UniProt P10145 28-99)", "T13 sequence": "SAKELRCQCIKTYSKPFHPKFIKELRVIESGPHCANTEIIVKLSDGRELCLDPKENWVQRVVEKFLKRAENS", "assay": "BLI [Cont.]"}, "CCL25_HUMAN": {"biological_target": "T14, CCL25_HUMAN (human, UniProt O15444 24-150)", "T14 sequence": "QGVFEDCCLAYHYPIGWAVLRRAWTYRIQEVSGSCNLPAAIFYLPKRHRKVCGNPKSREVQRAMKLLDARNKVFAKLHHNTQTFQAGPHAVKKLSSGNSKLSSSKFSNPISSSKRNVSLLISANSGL", "assay": "yeast surface display FACS"}, "CXCL6_HUMAN [7]": {"biological_target": "T4, CXCL6_HUMAN", "assay": "BLI"}, "CXCL2_HUMAN [8]": {"biological_target": "T5, CXCL2_HUMAN", "assay": "BLI"}, "CXCL3_HUMAN": {"biological_target": "T15, CXCL3_HUMAN (human, UniProt P19876 35-107)", "T15 sequence": "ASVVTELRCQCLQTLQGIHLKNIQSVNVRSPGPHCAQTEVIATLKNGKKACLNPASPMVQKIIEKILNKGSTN", "assay": "BLI"}, "CXCL8_HUMAN [9]": {"biological_target": "T13, CXCL8_HUMAN", "assay": "BLI"}, "CXCL1_HUMAN": {"biological_target": "T16, CXCL1_HUMAN (human, UniProt P09341 35-107)", "T16 sequence": "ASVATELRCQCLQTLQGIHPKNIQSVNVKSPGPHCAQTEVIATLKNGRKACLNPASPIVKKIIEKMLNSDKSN", "assay": "BLI"}, "CXCL5_HUMAN [10]": {"biological_target": "T8, CXCL5_HUMAN", "assay": "BLI"}, "CCL8_HUMAN": {"biological_target": "T17, CCL8_HUMAN (human, UniProt P80075 24-99)", "T17 sequence (looked up)": "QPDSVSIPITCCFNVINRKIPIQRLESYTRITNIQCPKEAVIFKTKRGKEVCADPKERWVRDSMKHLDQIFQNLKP", "assay": "cell-based or functional assay"}, "CCL5_HUMAN": {"biological_target": "T18, CCL5_HUMAN (human, UniProt P13501 24-91)", "T18 sequence": "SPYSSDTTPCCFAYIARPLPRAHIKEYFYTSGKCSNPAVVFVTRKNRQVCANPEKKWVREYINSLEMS", "assay": "cell-based or functional assay"}, "CCL7_HUMAN": {"biological_target": "CCL7_HUMAN (human, UniProt P80098 24-99)", "sequence (P80098 24-99 limits assumed)": "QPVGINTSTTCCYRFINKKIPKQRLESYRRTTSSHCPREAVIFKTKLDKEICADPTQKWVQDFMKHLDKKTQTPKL", "assay": "cell-based or functional assay"}, "CCL2_HUMAN": {"biological_target": "CCL2_HUMAN (human, UniProt P13500 24-99)", "sequence (P13500 24-99 limits assumed)": "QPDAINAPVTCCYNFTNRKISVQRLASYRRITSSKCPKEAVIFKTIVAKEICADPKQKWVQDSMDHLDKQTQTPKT", "assay": "cell-based or functional assay"}},
  "data": [
    {"binder": "B1", "values": [
      {"measurement": "Kd", "setting": "P1080_IXORI", "value": 1110, "unit": "nM"},
      {"measurement": "binding result", "setting": "P1095_IXORI", "value": "no binding (tested: 300 nM)"},
      {"measurement": "binding result", "setting": "P1096_IXORI", "value": "no binding (tested: 300 nM)"},
      {"measurement": "binding result", "setting": "P1134_IXORI", "value": "no binding (tested: 300 nM)"}
    ]},
    {"binder": "EVA3_RHISA (other, also called Evasin-3; evasin 3) single chain: LVSTIESRTSGDGADNFDVVSCNKNCTSGQNECPEGCFCGLLGQNKKGHCYKIIGNLSGEPPVVRR", "values": [
      {"measurement": "Kd", "setting": "CXCL6_HUMAN [1]", "value": 1.03, "unit": "nM"},
      {"measurement": "Kd", "setting": "CXCL2_HUMAN [2]", "value": 7.49, "unit": "nM"},
      {"measurement": "binding result", "setting": "CXCL4_HUMAN", "value": "no binding (tested: 300 nM)"},
      {"measurement": "binding result", "setting": "CXCL7_HUMAN", "value": "no binding (tested: 300 nM)"},
      {"measurement": "Kd", "setting": "CXCL5_HUMAN [3]", "value": 24.9, "unit": "nM"},
      {"measurement": "binding result", "setting": "CXCL11_HUMAN", "value": "no binding (tested: 300 nM)"},
      {"measurement": "binding result", "setting": "CXCL9_HUMAN", "value": "no binding (tested: 300 nM)"},
      {"measurement": "binding result", "setting": "CXCL10_HUMAN [4]", "value": "no binding (tested: 300 nM)"},
      {"measurement": "binding result", "setting": "CXCL14_HUMAN", "value": "no binding (tested: 300 nM)"},
      {"measurement": "binding result", "setting": "CXCL12_HUMAN", "value": "no binding (tested: 300 nM)"},
      {"measurement": "binding result", "setting": "CXCL13_HUMAN", "value": "no binding (tested: 300 nM)"}
    ]},
    {"binder": "P1086_IXORI (other) GSKGQRASQVSETSITAEFCDTSCTQGTDKTWSGCSGDCFCVHVGNDTEGRCMRWDGDYPSAEEEE", "values": [
      {"measurement": "% cells over threshold fluorescence", "setting": "CXCL10_HUMAN [5]", "value": 63, "unit": "%"},
      {"measurement": "Kd", "setting": "CXCL2_HUMAN [2]", "value": 34, "unit": "nM"},
      {"measurement": "binding result", "setting": "CXCL4_HUMAN", "value": "no binding (tested: 300 nM)"},
      {"measurement": "binding result", "setting": "CXCL7_HUMAN", "value": "no binding (tested: 300 nM)"},
      {"measurement": "binding result", "setting": "CXCL8_HUMAN [6]", "value": "no binding (tested: 300 nM)"},
      {"measurement": "Kd", "setting": "CXCL5_HUMAN [3]", "value": 26, "unit": "nM"},
      {"measurement": "binding result", "setting": "CXCL11_HUMAN", "value": "no binding (tested: 300 nM)"},
      {"measurement": "binding result", "setting": "CXCL14_HUMAN", "value": "no binding (tested: 300 nM)"},
      {"measurement": "Kd", "setting": "CXCL12_HUMAN", "value": 142, "unit": "nM"}
    ]},
    {"binder": "P1146_IXORI (other) GPDTKGDEESDENELFTVEYCGTNCTQLENGSWTPCSGNNGNCRCFHESDKTVGLCLSTEYTDFSEYPDPNSSEIIAAAPLPRERLIQ", "values": [
      {"measurement": "binding result", "setting": "CCL25_HUMAN", "value": "binds"}
    ]},
    {"binder": "P1156_IXORI (other) ADDDNELFTVQYCGMNCTKDEGGTWTGCTGKKEGCKCYHESGKNYGLCLSTEYTDFSQYGNPSDSEIEAAKPKRSDTLSH", "values": [
      {"measurement": "RT", "setting": "CXCL6_HUMAN [7]", "value": 3.23, "unit": "min"},
      {"measurement": "RT", "setting": "CXCL2_HUMAN [8]", "value": 4.2, "unit": "min"},
      {"measurement": "RT", "setting": "CXCL3_HUMAN", "value": 5.76, "unit": "min"},
      {"measurement": "RT", "setting": "CXCL8_HUMAN [9]", "value": 46.7, "unit": "min"},
      {"measurement": "RT", "setting": "CXCL1_HUMAN", "value": 35.7, "unit": "min"},
      {"measurement": "RT", "setting": "CXCL5_HUMAN [10]", "value": 5.33, "unit": "min"},
      {"measurement": "binding result", "setting": "CXCL9_HUMAN", "value": "no binding (tested: 300 nM)"},
      {"measurement": "binding result", "setting": "CXCL12_HUMAN", "value": "no binding (tested: 300 nM)"},
      {"measurement": "binding result", "setting": "CXCL13_HUMAN", "value": "no binding (tested: 300 nM)"}
    ]},
    {"binder": "P467_RHIPU (other) AEKSLDSDSSGEDYELWTQGCPFLVAENRTGFGTTVSCQHNCNGAIEKVPEGEPCYTIGEDGLGRMKLNLPYNCSLGECSGGVCVPNGRSDVCFKRTWEENNKAMA", "values": [
      {"measurement": "IC50, THP1 cell migration", "setting": "CCL8_HUMAN", "value": 1.92, "unit": "nM"},
      {"measurement": "IC50, THP1 cell migration", "setting": "CCL5_HUMAN", "value": 8.74, "unit": "nM"},
      {"measurement": "IC50, THP1 cell migration", "setting": "CCL7_HUMAN", "value": 11.1, "unit": "nM"},
      {"measurement": "IC50, THP1 cell migration", "setting": "CCL2_HUMAN", "value": 3.26, "unit": "nM"}
    ]}
  ]
}
